Reference: publication doi:10.1101/2024.09.13.612963 (bioRxiv, 2024)

Target: T1, TRAK1-mScarlet (wild type, truncated before the mitochondrial binding domain) (human, UniProt Q9UPV9 1-702)
T1 sequence (looked up): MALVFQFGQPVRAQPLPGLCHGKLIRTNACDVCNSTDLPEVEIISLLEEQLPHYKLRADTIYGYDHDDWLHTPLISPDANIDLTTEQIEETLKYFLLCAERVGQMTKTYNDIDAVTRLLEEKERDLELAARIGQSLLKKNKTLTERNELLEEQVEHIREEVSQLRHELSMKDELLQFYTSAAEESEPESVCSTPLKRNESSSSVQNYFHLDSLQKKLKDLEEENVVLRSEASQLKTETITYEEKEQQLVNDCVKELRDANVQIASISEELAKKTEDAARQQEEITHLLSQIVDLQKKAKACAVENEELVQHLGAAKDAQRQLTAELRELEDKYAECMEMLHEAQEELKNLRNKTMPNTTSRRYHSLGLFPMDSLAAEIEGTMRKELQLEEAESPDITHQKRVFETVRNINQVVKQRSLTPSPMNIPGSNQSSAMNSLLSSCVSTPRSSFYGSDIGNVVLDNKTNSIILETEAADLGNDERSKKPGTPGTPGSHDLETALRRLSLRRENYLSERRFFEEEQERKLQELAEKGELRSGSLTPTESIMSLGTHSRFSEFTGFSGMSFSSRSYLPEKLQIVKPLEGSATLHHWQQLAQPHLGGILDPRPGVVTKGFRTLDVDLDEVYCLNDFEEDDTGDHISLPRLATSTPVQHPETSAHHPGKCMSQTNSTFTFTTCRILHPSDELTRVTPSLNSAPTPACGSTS
Assay: co-IP

B1: kinesin-1 (KIF5B) (natural protein, human (endogenous in hTERT RPE-1), UniProt P33176 1-963, looked up)
chain: MADLAECNIKVMCRFRPLNESEVNRGDKYIAKFQGEDTVVIASKPYAFDRVFQSSTSQEQVYNDCAKKIVKDVLEGYNGTIFAYGQTSSGKTHTMEGKLHDPEGMGIIPRIVQDIFNYIYSMDENLEFHIKVSYFEIYLDKIRDLLDVSKTNLSVHEDKNRVPYVKGCTERFVCSPDEVMDTIDEGKSNRHVAVTNMNEHSSRSHSIFLINVKQENTQTEQKLSGKLYLVDLAGSEKVSKTGAEGAVLDEAKNINKSLSALGNVISALAEGSTYVPYRDSKMTRILQDSLGGNCRTTIVICCSPSSYNESETKSTLLFGQRAKTIKNTVCVNVELTAEQWKKKYEKEKEKNKILRNTIQWLENELNRWRNGETVPIDEQFDKEKANLEAFTVDKDITLTNDKPATAIGVIGNFTDAERRKCEEEIAKLYKQLDDKDEEINQQSQLVEKLKTQMLDQEELLASTRRDQDNMQAELNRLQAENDASKEEVKEVLQALEELAVNYDQKSQEVEDKTKEYELLSDELNQKSATLASIDAELQKLKEMTNHQKKRAAEMMASLLKDLAEIGIAVGNNDVKQPEGTGMIDEEFTVARLYISKMKSEVKTMVKRCKQLESTQTESNKKMEENEKELAACQLRISQHEAKIKSLTEYLQNVEQKKRQLEESVDALSEELVQLRAQEKVHEMEKEHLNKVQTANEVKQAVEQQIQSHRETHQKQISSLRDEVEAKAKLITDLQDQNQKMMLEQERLRVEHEKLKATDQEKSRKLHELTVMQDRREQARQDLKGLEETVAKELQTLHNLRKLFVQDLATRVKKSAEIDSDDTGGSAAQKQKISFLENNLEQLTKVHKQLVRDNADLRCELPKLEKRLRATAERVKALESALKEAKENASRDRKRYQQEVDRIKEAVRSKNMARRGHSAQIAKPIRPGQHPAASPTHPSAIRGGGAFVQNSQPVAVRGGGGKQV
fold enrichment against TRAK2-driven synthetic cargo: ~20 fold
